For this data set the following is noted: Homo sapiens; pH 7.4; Thermal; DSC; Sodium phosphate 10mM; NaCl 130 mM; transition: 2; reversible: yes; structure 1OWA.

For the substance “Spectrin alpha chain, erythrocytic 1, P02549 R28S”, the Tm was 53.3 °C and the “change of melting temperature, mutant - wild type (higher = more stable)” value (from here on “change of melting temperature, mutant”) was -1.3 °C.
In the same order, the values of “Spectrin alpha chain, erythrocytic 1, P02549 R28L” are 53.1 °C and -1.5 °C.
Turning to “Spectrin alpha chain, erythrocytic 1, P02549 I24T”, the midpoint of thermal melting (Tm) is 54.4 °C and the “change of melting temperature, mutant” value was -0.2 °C.
With “Spectrin alpha chain, erythrocytic 1, P02549 R45T”, the Tm was 54.6 °C and the “change of melting temperature, mutant” value stood at 0 °C.
For “Spectrin alpha chain, erythrocytic 1, P02549 R45S” the same measures were 55.1 °C and 0.5 °C.
“Spectrin alpha chain, erythrocytic 1, P02549 K48R”: the midpoint of thermal melting (Tm) came out at 54.7 °C and the “change of melting temperature, mutant” value came out at 0.1 °C.
In the case of “Spectrin alpha chain, erythrocytic 1, P02549 R28H”, the midpoint of thermal melting (Tm) turned out to be 53.6 °C and the “change of melting temperature, mutant” value is -1 °C.
For “Spectrin alpha chain, erythrocytic 1, P02549 R34W” the same measures were 49.1 °C and -5.5 °C.
For “Spectrin alpha chain, erythrocytic 1, P02549 G46V” the same measures were 52.8 °C and -1.8 °C.
In the same order, the values of “Spectrin alpha chain, erythrocytic 1, P02549 V31A” are 54.5 °C and -0.1 °C.
Consider “Spectrin alpha chain, erythrocytic 1, P02549 L49F”, for which the midpoint of thermal melting (Tm) was 55.4 °C and the “change of melting temperature, mutant” value stood at 0.8 °C.
Take “Spectrin alpha chain, erythrocytic 1, P02549 I24S”: the Tm came to 53.2 °C and the “change of melting temperature, mutant” value is -1.4 °C.

The term Tm denotes the temperature at which the thermal transition is half complete.

Source of the values: FireProtDB (doi:10.1182/blood-2007-11-122457).
